Key:
Assay in all cases: cell-based or functional assay
[1] = molecular target: HIV-1 Env of pseudovirus 928-28 (HIV-1)
[2] = molecular target: HIV-1 Env of pseudovirus ZM53M.PB12 (HIV-1)
[3] = molecular target: HIV-1 Env of pseudovirus 7030102001E5(Rev-) (HIV-1)
[4] = molecular target: HIV-1 Env of pseudovirus 191955_A11 (HIV-1)
[5] = molecular target: HIV-1 Env of pseudovirus MS208.A1 (HIV-1)
[6] = molecular target: HIV-1 Env of pseudovirus 3016.v5.c45 (HIV-1)
[7] = molecular target: HIV-1 Env of pseudovirus CAAN5342.A2 (HIV-1)
[8] = molecular target: HIV-1 Env of pseudovirus 235-47 (HIV-1)
[9] = molecular target: HIV-1 Env of pseudovirus 6952.v1.c20 (HIV-1)
[10] = molecular target: HIV-1 Env of pseudovirus Ce0682_E4 (HIV-1)
[11] = molecular target: HIV-1 Env of pseudovirus X1254_c3 (HIV-1)
[12] = molecular target: HIV-1 Env of pseudovirus CNE21 (HIV-1)
[13] = molecular target: HIV-1 Env of pseudovirus T257-31 (HIV-1)
[14] = molecular target: HIV-1 Env of pseudovirus Ce1176_A3 (HIV-1)
[15] = molecular target: HIV-1 Env of pseudovirus T250-4 (HIV-1)
[16] = molecular target: HIV-1 Env of pseudovirus HIV-16055-2.3 (HIV-1)
[17] = molecular target: HIV-1 Env of pseudovirus Ce2060_G9 (HIV-1)
[18] = molecular target: HIV-1 Env of pseudovirus 0815.v3.c3 (HIV-1)
[19] = molecular target: HIV-1 Env of pseudovirus 9004SS_A3_4 (HIV-1)
[20] = molecular target: HIV-1 Env of pseudovirus ZM197M.PB7 (HIV-1)
[21] = molecular target: HIV-1 Env of pseudovirus P1981_C5_3 (HIV-1)
[22] = molecular target: HIV-1 Env of pseudovirus ZM109F.PB4 (HIV-1)
[23] = molecular target: HIV-1 Env of pseudovirus 263-8 (HIV-1)
[24] = molecular target: HIV-1 Env of pseudovirus BJOX028000.10.3 (HIV-1)
[25] = molecular target: HIV-1 Env of pseudovirus HIV-001428-2.42 (HIV-1)
[26] = molecular target: HIV-1 Env of pseudovirus RHPA4259.7 (HIV-1)
[27] = molecular target: HIV-1 Env of pseudovirus 231966.c02 (HIV-1)
[28] = molecular target: HIV-1 Env of pseudovirus 3103.v3.c10 (HIV-1)
[29] = molecular target: HIV-1 Env of pseudovirus TRJO4551.58 (HIV-1)
[30] = molecular target: HIV-1 Env of pseudovirus 211-9 (HIV-1)
[31] = molecular target: HIV-1 Env of pseudovirus X1632_S2_B10 (HIV-1)
[32] = molecular target: HIV-1 Env of pseudovirus Ce2010_F5 (HIV-1)
[33] = molecular target: HIV-1 Env of pseudovirus C1080.c03 (HIV-1)
[34] = molecular target: HIV-1 Env of pseudovirus BJOX009000.02.4 (HIV-1)
[35] = molecular target: HIV-1 Env of pseudovirus 1012_11_TC21_3257 (HIV-1)
[36] = molecular target: HIV-1 Env of pseudovirus 6240_08_TA5_4622 (HIV-1)
[37] = molecular target: HIV-1 Env of pseudovirus 3365.v2.c2 (HIV-1)

Substance: PGT121 (antibody)
- IC50 [1]: 44.2 µg/mL
- IC80 [1]: > 50 µg/mL
- IC50 [2]: < 0.001 µg/mL
- IC80 [2]: 0.004 µg/mL
- IC50 [3]: 0.009 µg/mL
- IC80 [3]: 0.027 µg/mL
- IC50 [4]: > 50 µg/mL
- IC80 [4]: > 50 µg/mL
- IC50 [5]: > 50 µg/mL
- IC80 [5]: > 50 µg/mL
- IC50 [6]: > 50 µg/mL
- IC80 [6]: > 50 µg/mL
- IC50 [7]: 0.007 µg/mL
- IC80 [7]: 0.023 µg/mL
- IC50 [8]: 0.137 µg/mL
- IC80 [8]: 0.727 µg/mL
- IC50 [9]: 0.056 µg/mL
- IC80 [9]: 0.42 µg/mL
- IC50 [10]: > 50 µg/mL
- IC80 [10]: > 50 µg/mL
- IC50 [11]: 0.014 µg/mL
- IC80 [11]: 0.08 µg/mL
- IC50 [12]: 0.007 µg/mL
- IC80 [12]: 0.035 µg/mL
- IC50 [13]: > 50 µg/mL
- IC80 [13]: > 50 µg/mL
- IC50 [14]: 0.013 µg/mL
- IC80 [14]: 0.035 µg/mL
- IC50 [15]: < 0.001 µg/mL
- IC80 [15]: 0.005 µg/mL
- IC50 [16]: 0.153 µg/mL
- IC80 [16]: 4.8 µg/mL
- IC50 [17]: > 50 µg/mL
- IC80 [17]: > 50 µg/mL
- IC50 [18]: 0.025 µg/mL
- IC80 [18]: 0.111 µg/mL
- IC50 [19]: < 0.001 µg/mL
- IC80 [19]: 0.003 µg/mL
- IC50 [20]: > 50 µg/mL
- IC80 [20]: > 50 µg/mL
- IC50 [21]: < 0.001 µg/mL
- IC80 [21]: < 0.001 µg/mL
- IC50 [22]: 8.64 µg/mL
- IC80 [22]: > 50 µg/mL
- IC50 [23]: 0.648 µg/mL
- IC80 [23]: 3.96 µg/mL
- IC50 [24]: > 50 µg/mL
- IC80 [24]: > 50 µg/mL
- IC50 [25]: 0.014 µg/mL
- IC80 [25]: 0.051 µg/mL
- IC80 [26]: 0.035 µg/mL
- IC50 [27]: > 50 µg/mL
- IC80 [27]: > 50 µg/mL
- IC50 [28]: 0.009 µg/mL
- IC80 [28]: 0.028 µg/mL
- IC50 [29]: 1.31 µg/mL
- IC80 [29]: 37.9 µg/mL
- IC50 [30]: 0.852 µg/mL
- IC80 [30]: 4.2 µg/mL
- IC50 [31]: > 50 µg/mL
- IC80 [31]: > 50 µg/mL
- IC50 [32]: > 50 µg/mL
- IC80 [32]: > 50 µg/mL
- IC50 [33]: > 50 µg/mL
- IC80 [33]: > 50 µg/mL
- IC50 [34]: 2.86 µg/mL
- IC80 [34]: 31.7 µg/mL
- IC50 [35]: 0.003 µg/mL
- IC80 [35]: 0.017 µg/mL
- IC50 [36]: 0.033 µg/mL
- IC80 [36]: 0.127 µg/mL

Substance: 10-1074 (antibody)
- IC50, titer in TZM.bl cells [1]: 0.847 µg/mL
- IC80, titer in TZM.bl cells [1]: 4.7 µg/mL
- IC50, titer in TZM.bl cells [2]: > 50 µg/mL
- IC80, titer in TZM.bl cells [2]: > 50 µg/mL
- IC50, titer in TZM.bl cells [3]: 0.006 µg/mL
- IC80, titer in TZM.bl cells [3]: 0.021 µg/mL
- IC50, titer in TZM.bl cells [4]: > 50 µg/mL
- IC80, titer in TZM.bl cells [4]: > 50 µg/mL
- IC50, titer in TZM.bl cells [5]: > 50 µg/mL
- IC80, titer in TZM.bl cells [5]: > 50 µg/mL
- IC50, titer in TZM.bl cells [37]: 0.131 µg/mL
- IC80, titer in TZM.bl cells [37]: 0.45 µg/mL
- IC50, titer in TZM.bl cells [7]: 0.007 µg/mL
- IC80, titer in TZM.bl cells [7]: 0.036 µg/mL
- IC50, titer in TZM.bl cells [10]: > 50 µg/mL
- IC80, titer in TZM.bl cells [10]: > 50 µg/mL
- IC50, titer in TZM.bl cells [12]: 0.067 µg/mL
- IC80, titer in TZM.bl cells [12]: 0.181 µg/mL
- IC50, titer in TZM.bl cells [13]: > 50 µg/mL
- IC80, titer in TZM.bl cells [13]: > 50 µg/mL
- IC50, titer in TZM.bl cells [14]: 0.019 µg/mL
- IC80, titer in TZM.bl cells [14]: 0.07 µg/mL
- IC50, titer in TZM.bl cells [15]: < 0.001 µg/mL
- IC80, titer in TZM.bl cells [15]: 0.005 µg/mL
- IC50, titer in TZM.bl cells [16]: > 50 µg/mL
- IC80, titer in TZM.bl cells [16]: > 50 µg/mL
- IC50, titer in TZM.bl cells [17]: > 50 µg/mL
- IC80, titer in TZM.bl cells [17]: > 50 µg/mL
- IC50, titer in TZM.bl cells [19]: 0.011 µg/mL
- IC80, titer in TZM.bl cells [19]: 0.03 µg/mL
- IC50, titer in TZM.bl cells [20]: > 50 µg/mL
- IC80, titer in TZM.bl cells [20]: > 50 µg/mL
- IC50, titer in TZM.bl cells [22]: > 50 µg/mL
- IC80, titer in TZM.bl cells [22]: > 50 µg/mL
- IC50, titer in TZM.bl cells [23]: 0.666 µg/mL
- IC80, titer in TZM.bl cells [23]: 6.53 µg/mL
- IC50, titer in TZM.bl cells [25]: 0.044 µg/mL
- IC80, titer in TZM.bl cells [25]: 0.261 µg/mL
- IC50, titer in TZM.bl cells [26]: 0.021 µg/mL
- IC80, titer in TZM.bl cells [26]: 0.118 µg/mL
- IC50, titer in TZM.bl cells [29]: 0.17 µg/mL
- IC80, titer in TZM.bl cells [29]: 0.634 µg/mL
- IC50, titer in TZM.bl cells [32]: > 50 µg/mL
- IC80, titer in TZM.bl cells [32]: > 50 µg/mL
- IC50, titer in TZM.bl cells [35]: 0.008 µg/mL
- IC80, titer in TZM.bl cells [35]: 0.059 µg/mL
- IC50, titer in TZM.bl cells [36]: 0.068 µg/mL
- IC80, titer in TZM.bl cells [36]: 0.306 µg/mL
